Laboratory results: the DeepSol protein solubility set

experiment: soluble on expression in E. coli; label from the status in PepcDB or PDB records

| Sequence | soluble on expression in E. coli |
| --- | --- |
| MSLQESSFVHLHNHTQFSVLQSTMAVPDLVAAAAKHNMPAVAITDHANMMGAFHFVNAVKKHNSAIANDSENTSQPIKPIIGCEFFVCEDHTDRTHKDNGYQMVILAKNKKGYHNLAKMSSMGFTKGFYYIPRIDKKLIETYKDDLIVLSGSLYGEIASKLLNLGENQAEESLVWWKETFGDDFYVEIMRHQQEDEERANEALIRLANKHDINLVATNNTYYADQKDANAHDILLCVKEGEKQATPIGRGRGYRYGLPNDQYYFKSAEEMKSLFKDLPQAISNTEAIANKVEAFELAREVLLPAFVIPEQFLDEADKTDAGKRGENAYLKHLTFEGAKRRYGELSEEIKDRLDFELSVIANTGYPGYFLIVEDFIREARKMGVSVGPGRGSAAGSAVAYCLKITNIDPIKYDLLFERFLNPERVSMPDIDIDFDDEGRSKVMDYVIEKYGQNQVAQIITYGTMAAKSAIRDTARVLDLPLYEADRIAKLIPDMSKLGKIFSMNEKEEGHHHHHH | soluble |
| MKIAIVTDSTAYLPERIKDHPNLFVIPIPVILDGKIYNEGIDIEADEYYALLNNSKEFPTTSQPALGEVLELYKSIAEQGYDTIISIHLSSGISGFVHTLHGLTDEIPGVALYPYDSKITSMPMGHMVEAALDLTEEKASLEEIFAKLDLIRDNTYAYLIVEDLNNLVRGGRLTNGAALIAGLLKIKPILTFEDGKIVLFEKIRSTKKAFARAEKIIGERNAGIEAPVKLYVIHANNRIVAEKEQAKLQKLYPNAEIEIGHFGPVIGTHLGEKAIGLAISAQ | not soluble |
| MASMKKSTENESTNYQYKIQELRKLLKSLLLNYLELIGVLSINPDMYERKVENIRTILVNIHHLLNEYRPHQSRESLIMLLEEQLEYKRGEIREIEQVCKQVHDKLTS | soluble |
| MSLKYVNKVIVILGASFAGMTCAQKLRQLNPNWDIVLIDKEIHPDYVPNGLNWYYRHEISGLNQAMWQTEEEQRLQNIRCLFGLKVEKINKEDRELMLSDGSSVYYDQLICAMGSQAESTYIDGADAQGVLTTKTYATSQNAKQVLDKSHKVAVVGAGIIGLDIAYSLHESGKAVTLLEAQERPDFRHTDPDMSLPLLDAMAESKLHFFQNQKVEKITVTREEKLCLRTLTGDTFTVDAVILAVNFRPDSRLLTGLVDLSVDNSVVVNDYFQTSDPNIYAIGDLIWSYFKGLNSAYYMPLINQAIRSAQMLAYHLSGHAVPKLKITRATGSKHFGYYRANIGLTELEAGFYEDTVSVTYFPKEQYDLRIKLIANQKTGHLLGAQLISKENCLATANQLVQAISCDMTDFDLAFQDFIYTARESEMAYMLHQAAINLYEKRIGEGHHHHHH | soluble |
| MCMVHTYLGETINFHITYKKKKSVRLFVDSYGNVEVQAPKGTPVEYLIQLLEEKWDWIQTTRKEMAERARGPQEKDYDQGEGFLYLGNTYPIQISQDANITQDNAVFEKDRLHIYVKELKDEKIQQALKRFYYKQKSLVEKSIKAHQSNFKTKPRSIRITDSSRTWGTCDSNLQLTFNWKLAMAPQRVIDYVVVHEMCHMVHLNHDRSFWRLVGKIMPDYKEMENWLALSSWKMTVMAGDPLEHHHHHH | soluble |
| MNILLLDGGKAFGHSHGGLNRTLHKKAKEVLTALGHNVQETVIDAGYDVEAEIEKFVWMDAVIWQMPGWWMHEPWTVKKYIDEVLTAGHGKLYQSDGRHSVNPTEGYGTGGLLQGKKHMISLTWNAPIEAFTREGDFFEGKGVDVLYMHFHKANEFLGMTRLPTFLCNDVVKNPQVEKYLADYQAHLEKVFG | not soluble |
| SNGRADFREPNAQVSRPIPDIGGGYIPTEEEWRLFAECHEECFWFRSVPLAATSMLITQGLISKGILSSHPKYGSIPKLIFACIVGYFAGKLSYVKTCQEKFKKLENSPLGEALRSGELRRSLPPGHYTQKPKYDSNVSGQSSFGTSPAADNIEKETLPRYEPIPFSASMNESTPTGITDHIAQGPDPNLEDSPKRKSVTYEELRNKNRESYGVTLSHKTDPSVRPMQERGPQKEVKVNKYGDTWDE | soluble |
| MGSDKIHHHHHHMPTPHLDTALSGPILDLERCILNAMPSIEQWLRNEWQTHAAPFYCSVDLRNSGFKLAPVDTNLFPGGFNNLNREFMPLCVQAMMAAIDKICTGARSVLLIPESHTRNIFYLQNLAALHAIMRHAGIHVRIGTLLPEITAPTALDLPGGNKLTLEPIQRKGNRVVLEDFDPCVVLLNNDLSTGTPAVLQNLEQTVIPPLHAGWTSRRKSHHFTAYDNVSQQFASLIGIDPWLINPYFASCGKINFREKKGEDCVANTVDEILHQIREKYAEYGVRKDPFVIVKADAGTYGMGIMTVKDGAQVRTLSRKQRNKMAVVKEGLEVTDIMVQEGVYTFENVDDAVAEPVIYMIDRYVVGGFYRVHTERGVDENLNAPGMHFVPLAFEDTCLLPDREAQPGCSANRFYAYGVIARLALLAAAQELEKSEARIEAIMA | not soluble |
| MGSDKIHHHHHHMANNFDLHAALTLATKPGPFVTMTLPVTGIPATDRTQFNSLLKQGKEQLEKVAPDRTWSAYAESFTPFEHGPLTNGSATGLLIMAGASDSYHYWLHTPVAATVTVTYQPNVLPILQAQDKTSDYDILLLGRDAFDLAQVRNGRPEMVNLPVDAPVTLEKALGSELRDRGRWQRSAGEHTQYSGTGSLDTAREADQRNYFMMVDAYVSQHYSNVDQVPLILVANASDQGNFRKFSQNAYLDHVVRVVQGPNLAAANQTLAALALSITEQRHQQATQIRRDAYAKVRQNQQVVQDLGPLATAAVQGQVAKLWLRDDASQPGHLTEKGTVMTATALSRQNNLYNDLALQVSRLGGQVEVLPADAMPTSNPVAAQLRLRETVAH | not soluble |
| MSLAEFFKDSKASLELRNFYMNKDFRDEVSSAANQQSKQDEWAQGFILKYESGYTEGPVGFGLDMLGLLGVKLDSGPGEAGTGLLPGGYNNRAPDDYSELGVTGKVRFSKTELKVGTLLPKNPVLVYNDTRLLPQTFQGGNLQIKEIEGLTLDFGYLDEVNYRNSTHNEEMSLVNANRRNITIKPGAENEANFFMYGGATYQVTKALTATYYYGELDDLYKQHAVNLVHVLPLGKSSLKTDLRYARSTDDGEAHVDNHAFGLLTTYAMGAHKFGLGLQKMQGDTGFAQINGTDPFLVNYIQVNDFGNADERSWQLRYDYDFAALGIPGLTFMTRYVSGDHVDRGPGSDGKEWERDMDIAYVFQSGMLKNLSLKWRNATMRSNFVRDVDENRLIVSYTLPLLEGHHHHHH | not soluble |
| MGSDKIHHHHHHMTLPPPRPPALCRGVVGLPLETQIDLTASNLAAVADLAAQYGLLIYLEALSWTPLNTIDRQLRTIEIANRDNIRLVIDFWHCYTSGDTPKHIARLHKDIIYGVHICDSLAYAGGVPDENMLRDVPTGNGVLNLKEWVDAVKSTGYDGWWSCELFCRRQHQENSYDVARSLNALMRDLVGA | not soluble |
| MLLCAGRNETLKKAVPIGVGLIESAINLTRMCLKNPDTESLIFIGSAGSYSPEMELLSVFESVCGYQIEESFSHLNSYTPLDNFIHIETEEQALFERVRVNSSNYIHTSEMFAKKMVQKGVLLENMEFFSVLSVAKAFSLKAKGIFCVSNYVGLNAYQEFKENHAKVKQILENIIDSLII | soluble |
| MSLAPLDLDKYVEIARLCKYLPENDLKRLCDYVCDLLLEESNVQPVSTPVTVCGDIHGQFYDLCELFRTGGQVPDTNYIFMGDFVDRGYYSLETFTYLLALKAKWPDRITLLRGNHESRQITQVYGFYDECQTKYGNANAWRYCTKVFDMLTVAALIDEQILCVHGGLSPDIKTLDQIRTIERNQEIPHKGAFCDLVWSDPEDVDTWAISPRGAGWLFGAKVTNEFVHINNLKLICRAHQLVHEGYKFMFDEKLVTVWSAPNYCYRCGNIASIMVFKDVNTREPKLFRAVPDSERVIPPRTTTPYFLEGHHHHHH | not soluble |
| MGSDKIHHHHHHMKLILSVESVRFPLTGIGRYTYELASRLQHAEQISDLRLFAGSRFLPELLKPSDQSDAVHGLKRFVQKNALAVEAYRRLMPLLRKRALRGHEDFIYHSTNFYLPPFAGPRVATFHDLSPFTWAHCHTPQIARYLQKELKLTLERADALITVSHHTRKELADYFGWPLERIHAVPLASSPQFHPRTPQALRETLARHGLELGGYSLFVGTIEPRKNIETLLNAYGRLPLALRQRWPLILSGYHGWRSEAIHSRIAQAQQEGWARYLGFVASEDLPLLFAGARLFTFPSHYEGFGLPVLEAMSSGVPVVCSNSSSLPEVAGSAALMCAPDDVEGLTGLLHQGLEDEAWRSAAVQRGLLHAGGFSWERCAQGTVEVYKSVKER | not soluble |
| MGSDKIHHHHHHMRFEEAGCHGEFIQADLTKLPFSEPKFDVIFSEGVLHHTDSTEKAIKYLTTLLIPGGHFLFYVYKTKAPIREFTDDYVRNQLINMDDSQAWNELRSLTLLGKILGDLNIEVEIPEPILLLGIPAGRINIQRLFYWYICKAFYNPEWTIDEMNHVNFDWYRPLNCHRHTPEEIMTWCNQAGLKIERMNVQEAGITVVAKKE | not soluble |
| MIELEVFPHRYLKAETTEKFLNRAYSLSKVQRVVIHGESLPNKVGYGPAKGTPVNHSEKKEITVKGVPVELMLQVGRLWVLLDDESEIEKIEEICKDLFPFGYRLTKGKFLRNDPTVSDFIKYGESAVDDIDKRLLGATDPRSKFDSSVTIIPKSEKNELEHHHHHH | soluble |
| MGSDKIHHHHHHMARTNPHRPFVPDPEQAALAPGVSGNDINGLGETAFRRPRMVYWAPDPDDIPHGSLQRYFYRQSAKEPDFASRRAARQAVLDAPLPLLADTVVIRDPADWTAALTQFVDSGLCDLTGVAEMNPDWVFEGHEIPQSRVIMIGVAHDYNVIATAPKPSAGLEVMTQYTRAAQAAKTIAGWLRQQGWQAEPLTGPMTGALAMIPPALACGFGELGKHGSIINPDLGASFRLSAVLSDAPFAPTPAQDHGIDGFCQNCHICQDACPPEALFAQKQTVRGARKWYVDFDKCLPFFNQTHGCAICIAECPWSRPGIGPNLAAKLARKRNRDATG | not soluble |
| MSLKNEKQDITLWIAPNNVQEAFWSEVVGEWNKQPDKKKVVFSTIPAAGSSEEAIMNAIASDRAPDISENIFTGFGSQLADLGQVVDLSTLDGYENLISTRQMTDIMDNWRYNGKNYILPIYMNPVLFWWRGDLLKEQGFSEVPKTYDEVYALSEKYTIPDKRYAIQATSGRNWWDRWFDFIALYYAQSDGKPYIANQQASYDNQAGRDVLDFMHTLFSKKWTLYDFGQDDPLVTGKVLGAVRGPWDISRYQQQYPEILKHIKMGPMLVKEQQDKPHTFADGKGLVLFSHSKVKPEAWEFIQWVFSQPKFDKRWMELTGMPPARADLLTNPFFAEYYQEHPYAAAYAEYVNVAIPPVSSGETVEIQRSMTQMIEKTAFNTSTPDEALQQSIKEVNAILKEGHHHHHH | soluble |
| MDKEIKICPRCEQGYLYHAKPKYFSGEVILCDECYAMWLGDMKIFYGQYGKDFYDYHEFMKDKGIEEINMWEGELFDHPYYEDEKFK | not soluble |
| MGSDKIHHHHHHMSYSAKVLWGEGLFLRPQHFQRQDAYHEARLFESIQAIQPYNWGVRSVRFDRDALGSNVLRASELSLVFPDGALYSAPQADELPPPIALDTLPEGINEFTFYLALHPLRETGSNYADDRDAGFVSRFVSEQASVADHFTDAAEADITFLKTNVKLIAHSEPRDQLLSIPLVRVRRTATSGFEIDDGFVPPCLAIEASPILHQRLRQLIDALQAKVNALYGFHREPTKNIIEFRSGDIASFWLLHTASAAFAALAHLHQHSALHPERLFQELLRLAGQLMTFSKGYVLADLPAYRHDDPGPGFARLDSILRELLETVISTRYFAITLEEVRPSFHVGRLDSGKIDDKTAFYLAVSADMPSVELVDAVPARFKVGAPDDVDKLVLSAMPGVRLAYTPQVPPAIPVRPGACYFALDARSPLYERMLQAQSAMIYAPSGINDLKFELIAVTS | not soluble |
